Measured values from publication PMC9602545, “TcMYB8, a R3-MYB Transcription Factor, Positively Regulates Pyrethrin Biosynthesis in Tanacetum cinerariifolium”.

B1: Probe_proGLIP (dsDNA)
DNA 1: CCTGACAGTTGCTATTTAGTGCTGTCTACTTGTTTAGTTGTGGAGCAAATGACT
DNA 2: AGTCATTTGCTCCACAACTAAACAAGTAGACAGCACTAAATAGCAACTGTCAGG
B2: Probe_proCHS (dsDNA)
DNA 1: TTTGAAGGCAAGTGATGTAAAGTGCTAAGTGTTAAGTCAATGATTATAT
DNA 2: ATATAATCATTGACTTAACACTTAGCACTTTACATCACTTGCCTTCAAA

Target: TcMYB8 (Tanacetum cinerariifolium (clone W99), UniProt A0A9Y1M041 1-217)
Sequence (A0A9Y1M041 entry or part of it): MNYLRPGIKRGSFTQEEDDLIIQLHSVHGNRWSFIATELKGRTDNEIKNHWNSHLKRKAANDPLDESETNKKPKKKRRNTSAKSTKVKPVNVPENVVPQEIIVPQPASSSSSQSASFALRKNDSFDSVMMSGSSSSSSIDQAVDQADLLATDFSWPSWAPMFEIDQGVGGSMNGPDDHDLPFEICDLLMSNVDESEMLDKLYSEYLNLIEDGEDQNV
Test: EMSA; labeled probe 10 uM; EMSA with 10 uM FAM probe; buffer, salt, pH and temperature not stated
Details: protein: recombinant; tags: 6xHN, C-terminal (pET6HN-C vector); label: 5' 6-FAM; blunt

| Binder | binding result |
| --- | --- |
| B1 | binds |
| B2 | binds |
